US20130224191A1, “NOTUM PROTEIN MODULATORS AND METHODS OF USE” (priority 2010, published 2013)
Entries after “also recorded” stand apart in the source; their conditions may differ.

Experiments:
macaque Notum N141D = assay: Neutralization of point mutated macaque Notum, 4-MUH assay; assay type: biochemical
Protocol: In addition to the assays described in Examples 23 and 24, a fluorescent esterase substrate, 4-methylumbelliferyl heptanoate (Sigma), can be used to measure the activity of hydrolases using standard assay conditions (Richardson and Smith, 2007, PMID: 17620441; Jacks and Kircher, 1967, PMID: 5582971). Briefly, 4-MUH was dissolved in DMSO to a final concentration of 1.2 mM. This substrate was diluted 1:10 into assay buffer (0.1M Tris, pH 7.5, 50 mM NaCl, 0.05% Brij) and incubated with defined amounts of Notum enzyme or point-mutated Notum enzymes, and enzymatic release of the fluorescent molecule 4-methylumbelliferone monitored (355 nm excitation, 460 nm emission) using a Wallac Victor3 Multilabel Counter (Perkin Elmer).
Similarly, the macaque residue at this position was point mutated to the human residue (N141D). […] However, these point mutants differed in their ability to be neutralized by SC2.D2.2 (FIG. 26).

murine Notum-His = target: T1, murine Notum-His (Mus musculus, UniProt Q8R116); assay: Neutralization of murine Notum in 293.TCF assay; assay type: cell-based
T1 construct: His tag; made in house
T1 sequence (Q8R116 20-503): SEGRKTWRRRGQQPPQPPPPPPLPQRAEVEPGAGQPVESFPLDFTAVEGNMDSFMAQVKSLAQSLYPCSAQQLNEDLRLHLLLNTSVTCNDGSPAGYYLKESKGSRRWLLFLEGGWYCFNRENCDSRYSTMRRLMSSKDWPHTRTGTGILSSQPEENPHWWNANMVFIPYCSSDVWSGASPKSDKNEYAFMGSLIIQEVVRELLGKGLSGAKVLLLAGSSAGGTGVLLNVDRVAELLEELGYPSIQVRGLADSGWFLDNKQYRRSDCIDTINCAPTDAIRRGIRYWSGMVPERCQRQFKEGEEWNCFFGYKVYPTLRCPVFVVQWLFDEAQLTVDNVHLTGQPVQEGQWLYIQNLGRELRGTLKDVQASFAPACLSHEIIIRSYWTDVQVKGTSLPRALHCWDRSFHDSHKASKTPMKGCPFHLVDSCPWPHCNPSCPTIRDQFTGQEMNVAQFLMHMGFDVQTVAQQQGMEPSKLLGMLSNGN
Protocol: Using the 293.TCF cells, purified SC2.D2.2 and SC2.A106 antibodies were tested for their ability to neutralize murine Notum-His or macaque Notum-Fc activity as follows. 2.5×10^4 293.TCF cells were plated per well of a 96-well tissue culture plate in 50 μL of serum-free medium. After 23 hours of serum starvation, 10 μL of DMEM+0.2% FBS containing the Notum proteins at various concentrations were mixed with 15 μL of purified antibody at various concentrations, and allowed to incubate for 5 minutes at room temperature. The 25 μL antibody/Notum mixture was then added to the 293.TCF cells. After 1 hour, 25 μL of Wnt3A or control L-cell CM were added to each well. Eighteen hours after addition of CM, 100 μL of One-Glo solution (ProMega Corp.) was added to each well. The contents of each well were mixed thoroughly to lyse the cells, 100 μL of lysate transferred to black 96-well plates, and the luminescence read after 5 minutes.

Notum = target: T2, Notum (Homo sapiens, UniProt Q6P988); assay: Epitope mapping ELISA, human Notum; assay type: binding; design: made in house
T2 sequence (Q6P988 20-496): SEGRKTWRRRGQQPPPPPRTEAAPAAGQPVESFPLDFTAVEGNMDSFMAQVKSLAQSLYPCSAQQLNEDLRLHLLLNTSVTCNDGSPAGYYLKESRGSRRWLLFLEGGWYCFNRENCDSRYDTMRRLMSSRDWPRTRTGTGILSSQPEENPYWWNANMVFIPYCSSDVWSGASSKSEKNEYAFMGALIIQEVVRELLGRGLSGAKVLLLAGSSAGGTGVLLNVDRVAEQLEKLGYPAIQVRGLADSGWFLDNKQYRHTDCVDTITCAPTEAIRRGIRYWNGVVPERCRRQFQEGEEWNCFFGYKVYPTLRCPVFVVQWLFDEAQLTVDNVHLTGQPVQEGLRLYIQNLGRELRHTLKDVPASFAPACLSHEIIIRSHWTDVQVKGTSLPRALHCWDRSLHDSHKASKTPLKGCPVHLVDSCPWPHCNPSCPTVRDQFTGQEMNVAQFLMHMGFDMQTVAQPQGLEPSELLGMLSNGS
Protocol: Binding of SC2.D2.2 and other mouse mAbs to purified Notum molecules generated from transient transfection of Human and Mouse Notum cDNAs were tested using ELISA assay with human Notum, mouse Notum and chimeric human/mouse Notum coated directly on ELISA plate. Binding of anti-Notum mAbs was detected with HRP-conjugated goat anti mouse antibody and followed by colorimetric horseradish peroxidase substrate (TMB substrate Thermo Scientific). The absorbance of each well of the ELISA plates was measured at 450 nm on a microplate autoreader.

[1] = target: T3, porcine pancreatic lipase (Sus scrofa, UniProt P00591); assay: Inhibition of porcine pancreatic lipase (Tween 20); assay type: biochemical
T3 construct: purchased Sigma Aldrich
T3 sequence (P00591 1-450): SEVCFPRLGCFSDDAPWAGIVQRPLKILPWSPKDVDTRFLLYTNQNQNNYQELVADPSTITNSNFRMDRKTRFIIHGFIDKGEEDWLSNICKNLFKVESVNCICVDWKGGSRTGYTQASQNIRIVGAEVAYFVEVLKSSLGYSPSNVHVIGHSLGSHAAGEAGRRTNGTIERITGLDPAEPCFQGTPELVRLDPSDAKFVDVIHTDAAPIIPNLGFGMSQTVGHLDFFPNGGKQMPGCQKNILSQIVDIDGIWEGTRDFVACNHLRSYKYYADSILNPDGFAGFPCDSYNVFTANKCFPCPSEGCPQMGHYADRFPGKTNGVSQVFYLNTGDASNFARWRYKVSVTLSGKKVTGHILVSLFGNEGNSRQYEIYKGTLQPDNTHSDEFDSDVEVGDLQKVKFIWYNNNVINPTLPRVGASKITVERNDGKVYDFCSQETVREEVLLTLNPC
Protocol: Briefly, recombinant hNotum (1 μg/well) was added to an assay buffer containing 50 mM Tris, pH 7.4, 33.3 mM CaCl2, and 0.33% Tween-20. When the Tween 20 monolauryl group is cleaved by lipases (e.g. hNotum), the free fatty acid forms an insoluble complex with the Ca^2+ cations resulting in a turbid solution, the OD of which can be measured at 405 nm to provide a measure of lipase activity. As a positive control, the activity of porcine pancreatic lipase (Sigma Aldrich) was measured in the same assay.
In order to take advantage of this enzymatic property and further exemplify the properties of the present invention, an assay was run to determine the effects of Notum modulators on the lipolytic activity of Notum. To that end, various concentrations of SC2.D2.2 were preincubated with hNotum for a set period prior to adding the mixture to the assay buffer and measuring the resulting enzymatic activity as described above. The results of the assay are graphically represented in FIG. 20

B1: SC2.D2.2 (antibody, V domains shown)
VH: DVQLVESGGGLVQPGGSRKISCAASGFTFSSYGMHWVRQAPEKGLEWVAYISSSTVTTYYADTVKGRFTISRDNANNTLFLQMTSLRSEDTAMYYCSRQNWDGGYFDVWGAGTTVTVSS
VL: DIVLTQSLASLAVSLGQRATISCRASKSVSSSGYSYMHWYQQKPGQPPKLLIYLASNLESGVPARFSGSGSGTDFTLNIHPVEEEDAATYYCQHSRALPLTFGAGTKLELKR
notes: also called murine SC2.D2.2
Macaque Notum N141D
  neutralization of mutant Notum protein: enabled the antibody to neutralize the mutant protein
Murine Notum-His
  inhibition of murine Notum activity: did not inhibit; also recorded: without inhibiting murine or macaque versions of the protein
Notum
  binding to human Notum: confirmed the binding
[1]
  effect on lipase activity of porcine pancreatic lipase: not severely impacting the lipase activity
